Results as given in patent publication US7335722 (FOOD INDUSTRY RESEARCH AND DEVELOPMENT INSTITUTE, dated 2008).

Molecular target: T1, Angiotensin converting enzyme (ACE)
T1 sequence (F1RRW5 whole entry, species assumed, looked up): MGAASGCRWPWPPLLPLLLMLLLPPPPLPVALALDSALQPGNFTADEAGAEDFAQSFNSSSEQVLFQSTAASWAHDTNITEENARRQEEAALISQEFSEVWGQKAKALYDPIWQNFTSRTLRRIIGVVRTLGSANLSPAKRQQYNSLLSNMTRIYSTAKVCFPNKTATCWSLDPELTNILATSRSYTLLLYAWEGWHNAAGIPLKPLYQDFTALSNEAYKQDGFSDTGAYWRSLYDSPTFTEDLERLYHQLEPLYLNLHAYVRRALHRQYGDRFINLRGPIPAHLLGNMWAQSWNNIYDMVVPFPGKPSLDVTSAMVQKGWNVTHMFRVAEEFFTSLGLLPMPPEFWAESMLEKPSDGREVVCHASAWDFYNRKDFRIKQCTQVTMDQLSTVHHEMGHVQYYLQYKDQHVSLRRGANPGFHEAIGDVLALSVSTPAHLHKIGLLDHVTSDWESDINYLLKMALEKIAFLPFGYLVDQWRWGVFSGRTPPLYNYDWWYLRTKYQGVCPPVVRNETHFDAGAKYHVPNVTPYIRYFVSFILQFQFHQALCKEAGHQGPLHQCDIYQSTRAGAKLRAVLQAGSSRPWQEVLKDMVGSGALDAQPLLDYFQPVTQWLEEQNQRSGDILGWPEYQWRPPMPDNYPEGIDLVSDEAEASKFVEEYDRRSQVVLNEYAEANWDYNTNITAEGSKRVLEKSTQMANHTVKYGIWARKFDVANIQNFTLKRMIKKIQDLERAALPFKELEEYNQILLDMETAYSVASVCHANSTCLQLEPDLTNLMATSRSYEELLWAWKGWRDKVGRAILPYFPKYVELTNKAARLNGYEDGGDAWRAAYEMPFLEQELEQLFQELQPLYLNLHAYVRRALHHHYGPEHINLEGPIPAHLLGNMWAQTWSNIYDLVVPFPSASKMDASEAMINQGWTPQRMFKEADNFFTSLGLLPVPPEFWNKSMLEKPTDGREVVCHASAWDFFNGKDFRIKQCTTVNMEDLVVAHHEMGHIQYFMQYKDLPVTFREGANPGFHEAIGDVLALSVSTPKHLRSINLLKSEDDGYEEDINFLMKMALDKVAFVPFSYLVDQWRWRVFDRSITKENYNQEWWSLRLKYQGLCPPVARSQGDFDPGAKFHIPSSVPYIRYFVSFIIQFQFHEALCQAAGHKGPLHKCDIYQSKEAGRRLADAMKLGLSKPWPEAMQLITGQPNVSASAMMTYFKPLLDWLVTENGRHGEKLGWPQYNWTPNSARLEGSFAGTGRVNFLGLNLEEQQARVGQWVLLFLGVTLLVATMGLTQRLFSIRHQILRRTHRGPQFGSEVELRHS
Assay: cell-based or functional assay

Question: With ILPP [Ile-Leu-Pro-Pro (ILPP)] as the binder, how does the “ACE inhibitory activity (IC50)” value read?
Answer: 172 µM

Question: How did the “ACE inhibitory activity (IC50)” value turn out when VLPP [Val-Leu-Pro-Pro (VLPP)] was run?
Answer: 97 µM
